The test has as its target T1, GST-K-p52 (human, UniProt O75475 1-325, 32P-labeled by HMK where used as Farwestern probe).
T1 construct: The Nru I-EcoR V fragment of p52 cDNA was put in pGEX-2T(K); also called GST-p52; p52 probe; not shown: glutathione-S-transferase from the pGEX-2T(K) vector; heart muscle kinase (K) site and vector linker
As to the kind of experiment: Farwestern blot with 32P-labeled GST-K-p52.

T1 sequence (O75475 other isoform, or with tags, fused parts or gaps): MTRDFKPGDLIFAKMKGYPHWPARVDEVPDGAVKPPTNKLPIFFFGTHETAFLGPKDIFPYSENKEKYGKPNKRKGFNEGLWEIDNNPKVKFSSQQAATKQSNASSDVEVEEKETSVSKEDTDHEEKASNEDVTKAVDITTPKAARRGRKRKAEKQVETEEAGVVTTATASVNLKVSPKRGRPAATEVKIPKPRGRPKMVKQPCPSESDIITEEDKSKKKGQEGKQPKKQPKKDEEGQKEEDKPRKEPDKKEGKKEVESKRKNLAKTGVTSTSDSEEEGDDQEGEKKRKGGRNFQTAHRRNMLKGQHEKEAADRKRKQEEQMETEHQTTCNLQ

B1: GST-RS (GST-fused RS domain of ASF/SF2) (other, UniProt Q07955 198-248, looked up)
chain: RSPSYGRSRSRSRSRSRSRSRSNSRSRSYSPRRSRGSPRYSPRHSRSRSRT
notes: domain: RS domain; not shown: glutathione-S-transferase
Turning to B1, the binding result is listed as “no binding”.

The values above are taken from US20050042631A1 (US Dept. of Health and Human Services, published 2005).
